Reference: PMC6649833

Legend:
[1] = target: T1, N15 Cro (bacteriophage N15, UniProt Q37964 1-71); test: X-ray crystallography
T1 sequence: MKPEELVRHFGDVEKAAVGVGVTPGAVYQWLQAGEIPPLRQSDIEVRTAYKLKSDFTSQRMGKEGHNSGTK

[2] = target: T2, N15 Cro-His6 (bacteriophage N15, UniProt Q37964 1-71); test: EMSA
T2 sequence: T1 sequence

[3] = target: T1, N15 Cro; test: EMSA

B1: N15 symmetric consensus OR 16 bp (dsDNA)
DNA 1: TTTATAGCTAGCTATAA
DNA 2: TTTATAGCTAGCTATAA
B1: binds [1].

B2: N15 OR3 28 bp (dsDNA)
DNA 1: GCAAAATTATAGCCAGCTATAAAGAGCG
DNA 2: CGCTCTTTATAGCTGGCTATAATTTTGC
B2 showed a Kd [2] of 91 ± 11 nM and a Kd [3] of 90 ± 7 nM.
